From the supplement of paper PMC10126150
± gives the standard deviation of the averaged measurements.

System: ATP
Assay: switch fluorescence ratio, 500 uM ATP over buffer (Cy3 cluster intensity, sum of 5 cycles each) (fold (ratio)); higher = stronger signal-on switching upon ATP binding; sequences stand for … in TCGTCGGCAGCGTCAGATGTGTATAAGAGACAGTTTTTTTTTTTTTTTTTTTTTTTTT…TC
Conditions: aptamer strand: ATP DNA aptamer (quencher-CACCTGGGGGAGTATTGCGGAGGAAGG + anchor), 100 nM annealed; ATP concentration: 500 uM
Procedure, shortened: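 Cy3-labelled switching-strand clusters on a modified Illumina MiSeq flow-cell were annealed to 100 nM quencher-labelled ATP aptamer and imaged first in selection buffer, then after 15 min with 500 uM ATP at 22 °C. NaOH stripping and re-annealing separated each of five buffer/ATP cycles, and clusters outside 100-1000 RFU were excluded. The fluorescence ratio sums target-cycle Cy3 intensity over buffer-cycle Cy3 intensity per cluster and averages it per switch-domain sequence.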
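Also: ATP exposure 15 min at 22 °C before imaging.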

Sequence | switch fluorescence ratio
CACCGTGTGG | 1.006 ± 0.0088
CACCTAATGT | 1.06 ± 0.015
CACCTGTCCG | 1.06 ± 0.02
CACGAAGGGT | 1.02 ± 0.018
CACGACATTG | 1.02 ± 0.018
CACGAGATAA | 1.11 ± 0.079
CACGCAAGTG | 1.03 ± 0.018
CACGCACATG | 1.5 ± 0.076
CACGCGGGGG | 1.03 ± 0.015
CACGGAAGCG | 1.05 ± 0.032
CACGGCAGCT | 1.09 ± 0.02
CACGGCCGGA | 1.03 ± 0.052
CACGGCTATG | 1.06 ± 0.046
CACGGGGGAA | 1.03 ± 0.029
CACGGTGGCT | 1.01 ± 0.03
CACGGTGGGT | 0.9898 ± 0.0079
CACGGTTTGC | 1.01 ± 0.021
CACGTAAAAA | 1.16 ± 0.19
CACGTATTGG | 1.11 ± 0.017
CACGTGGGCA | 1.01 ± 0.048
CACGTTGAAC | 1.11 ± 0.034
CACTAAGGGA | 0.996 ± 0.014
CACTAATTTT | 1.03 ± 0.019
CACTAGAACC | 1.0319 ± 8.9e-05
CACTCGTGGC | 1.01 ± 0.053

Sequence | switch fluorescence ratio
CACTCTACGA | 1.41 ± 0.073
CACTGCTTTT | 0.992 ± 0.023
CACTGGAGAG | 1.039 ± 0.0048
CACTGGCGAT | 1.06 ± 0.054
CACTGGTTAA | 0.995 ± 0.013
CACTGTCGAT | 1.016 ± 0.0097
CACTTAAAAG | 1.05 ± 0.13
CACTTAACAG | 1.1 ± 0.017
CACTTAGGGC | 1.06 ± 0.024
CACTTCATTT | 1.01 ± 0.013
CACTTGCAGA | 0.999 ± 0.013
CACTTGGTCG | 1 ± 0.068
CACTTTCGT | 0.959 ± 0.029
CACTTTTTGG | 0.999 ± 0.003
CAGAAAAAAT | 0.978 ± 0.038
CAGAAGGGGG | 1.11 ± 0.16
CAGAAGGGTT | 0.997 ± 0.038
CAGAATCAAC | 1.05 ± 0.014
CAGAGATCTG | 0.9732 ± 0.0053
CAGAGCCAAC | 1.11 ± 0.016
CAGAGCTTTT | 1.05 ± 0.058
CAGAGGATGC | 0.995 ± 0.0041
CAGAGGGGTG | 1.05 ± 0.012
CAGAGTAACA | 0.973 ± 0.03
CAGAGTGGCA | 1.02 ± 0.027

Sequence | switch fluorescence ratio
CAGATAGAAG | 0.999 ± 0.012
CAGATAGACG | 1.04 ± 0.036
CAGATAGCAG | 1.093 ± 0.0021
CAGATATGGC | 1.05 ± 0.034
CAGATCTGTA | 1.0087 ± 0.00071
CAGATGAGGG | 1.005 ± 0.0057
CAGATGGACG | 0.968 ± 0.032
CAGATGGGGT | 0.9839 ± 0.001
CAGATGGTCG | 0.938 ± 0.057
CAGATGTGTT | 0.9728 ± 0.0031
CAGCAAAAAG | 0.985 ± 0.025
CAGCAACATG | 1.04 ± 0.024
CAGCAGGCGG | 1.01 ± 0.024
CAGCAGGCGT | 1.03 ± 0.021
CAGCAGGGGC | 1.11 ± 0.024
CAGCATCCTT | 1.02 ± 0.043
CAGCATGTTT | 0.988 ± 0.024
CAGCCAAAT | 1.043 ± 0.01
CAGCCGACCG | 1.163 ± 0.0088
CAGCCGGGTG | 1.3412 ± 0.0003
CAGCCTTGTG | 1.013 ± 0.0079
CAGCGAGGGG | 1.21 ± 0.32
CAGCGAGTCC | 1.067 ± 0.0012
CAGCGAGTGG | 1 ± 0.036
CAGCGCTGGA | 0.996 ± 0.033

Sequence | switch fluorescence ratio
CAGCGGACCG | 1.02 ± 0.028
CAGCGTAGGT | 1.02 ± 0.043
CAGCTACTTG | 1.05 ± 0.025
CAGCTAGATA | 0.9987 ± 0.0065
CAGCTAGCGG | 0.97 ± 0.025
CAGCTAGGTT | 1.31 ± 0.39
CAGCTAGTCC | 1.176 ± 0.0035
CAGCTAGTGT | 0.984 ± 0.028
CAGCTATTTA | 1.02 ± 0.025
CAGCTTTTCA | 1.024 ± 0.006
CAGGAACGAG | 1.004 ± 0.0035
CAGGAAGCAG | 1.05 ± 0.09
CAGGAATACT | 3.61 ± 3
CAGGACGGGG | 1.01 ± 0.038
CAGGACTATT | 0.995 ± 0.021
CAGGACTGTT | 1.02 ± 0.011
CAGGACTTAT | 1.02 ± 0.064
CAGGAGAGCG | 0.9934 ± 0.0077
CAGGAGGACT | 1.02 ± 0.015
CAGGAGGATC | 1.027 ± 0.0074
CAGGAGGGGG | 0.992 ± 0.053
CAGGAGTCGT | 1 ± 0.038
CAGGATATAT | 1.01 ± 0.027
CAGGATCTAG | 1 ± 0.024
CAGGATGCGT | 0.9611 ± 0.0076
